Data as given in article PMC3115021, “Dynamics of Cdk1 Substrate Specificity during the Cell Cycle” (Molecular Cell, 2011).

Legend:
Assay in all cases: Quantitative phosphorylation assay of T33-Sic1ΔC constructs and recombinant substrates
Assay type in all cases: biochemical
Cln2-Cdk1 = molecular target: T1, Cln2-Cdk1 (Saccharomyces cerevisiae, UniProt P00546+P20438); settings: for kcat/KM, Cln2: Table S2, purified protein substrate, relative values, not divided by [S]
T1 construct: We purified the four cyclin-Cdk1 complexes from yeast; made in house; host or cells: S. cerevisiae strain DMY305 (galactose-induced); Cks1 from bacteria
Experimental: (§1) For the quantitative phosphorylation assays of T33-Sic1ΔC constructs and recombinant substrates, substrate concentrations were kept in the range of 0.5–2 μM (in the linear [S] versus v0 range, several-fold below the estimated KM value), and initial velocity conditions were defined as an initial substrate turnover of up to 10% of the total turnover. For the steady-state peptide kinetics of the Histone peptide PKTPKKAKKL, a similar assay composition was used as for protein substrates, and phosphocellulose paper was used for the quantification of the phosphorylated substrate. […]
(§2) similar substrate specificity as the Cln2-Cdk1 version purified using a TAP-tag. N-terminally 6His-tagged recombinant T33-Sic1ΔC constructs and substrates were cloned into the pET28a vector and purified by standard cobalt affinity chromatography and elution with 200 mM imidazole. 6His-Fin1 was purified as described previously (Woodbury and Morgan, 2007). Substrates cloned into the pGEX-4T-1 were purified on glutathione agarose columns using 5 mM reduced glutathione for elution. Cks1 was purified as described previously (Reynard et al., 2000). The optimal working concentration for purified Cks1 was taken as 500 nM based on optimization performed for cyclin-Cdk1 preparations and T33-Sic1ΔC as a substrate.
(§3) For the quantitative phosphorylation assays of T33-Sic1ΔC constructs and recombinant substrates, substrate concentrations were kept in the range of 0.5-2 μM (in the linear [S] vs v0 range, several-fold below the estimated KM value), and the initial velocity conditions were defined as an initial substrate turnover ranging up to 10% of the total turnover. The latter was estimated by a long-term incubation with excess amounts of cyclin-Cdk1 and 32P-γ-ATP in the standard reaction mixture given below. About 1-10 nM of purified kinase complex was used, reaction aliquots were taken at two or more time points, and the reaction was stopped by SDS-PAGE sample buffer. The relative kcat/KM values for the substrates were calculated as the ratio of v0/[S], which was determined from at least two independent experiments. The basal composition of the assay mixture contained 50 mM Hepes, pH 7.4, 100 mM NaCl, 0.1% NP-40, 20 mM imidazole, 0.1 mg/ml 2HA peptide, 2% glycerol, 2 mM EGTA, 0.2 mg/ml BSA, […], and 500 μM ATP (with added 32P-γ-ATP (Perkin Elmer)).
(§4) About 1-10 nM of purified kinase complex was used, reaction aliquots were taken at two or more time points, and the reaction was stopped by SDS-PAGE sample buffer. For the steady-state peptide kinetics of the Histone peptide PKTPKKAKKL, a similar assay composition was used as for protein substrates and the standard phosphocellulose method was applied for the quantification of the phosphorylated substrate (Loog and Morgan, 2005). Synthetic peptides as competitor agents were used in 4 mM final concentrations. […]

Clb5-Cdk1 = molecular target: T2, Clb5-Cdk1 (Saccharomyces cerevisiae, UniProt P00546+P30283); settings: for kcat/KM, Clb5: Table S2, purified protein substrate, relative values, not divided by [S]; for effect of competitor peptide on Clb5-dependent phosphorylation of Sic1ΔC: synthetic competitor peptide 4 mM, result in words
T2 construct: We purified the four cyclin-Cdk1 complexes from yeast; made in house; host or cells: S. cerevisiae strain DOM0076 (gal-CLB5-TAP, sic1 deleted); Cks1 from bacteria
Experimental: as §1, §2, §3, §4

Clb2-Cdk1 = molecular target: T3, Clb2-Cdk1 (Saccharomyces cerevisiae, UniProt P00546+P24869); settings: Table S2; purified protein substrate; relative values, not divided by [S]
T3 construct: We purified the four cyclin-Cdk1 complexes from yeast; made in house; host or cells: S. cerevisiae strain DOM0077 (gal-CLB2-TAP, sic1 deleted); Cks1 from bacteria
Experimental: as §1, §2, §3, §4

Clb3-Cdk1 = molecular target: T4, Clb3-Cdk1 (Saccharomyces cerevisiae, UniProt P00546+P24870); settings: Table S2; purified protein substrate; relative values, not divided by [S]
T4 construct: We purified the four cyclin-Cdk1 complexes from yeast; made in house; host or cells: S. cerevisiae strain DOM0957 (gal-CLB3-TAP, sic1 deleted); Cks1 from bacteria
Experimental: as §1, §2, §3, §4

[1] = synthetic competitor peptide 4 mM

T3 sequence (P00546 2-298 limits assumed): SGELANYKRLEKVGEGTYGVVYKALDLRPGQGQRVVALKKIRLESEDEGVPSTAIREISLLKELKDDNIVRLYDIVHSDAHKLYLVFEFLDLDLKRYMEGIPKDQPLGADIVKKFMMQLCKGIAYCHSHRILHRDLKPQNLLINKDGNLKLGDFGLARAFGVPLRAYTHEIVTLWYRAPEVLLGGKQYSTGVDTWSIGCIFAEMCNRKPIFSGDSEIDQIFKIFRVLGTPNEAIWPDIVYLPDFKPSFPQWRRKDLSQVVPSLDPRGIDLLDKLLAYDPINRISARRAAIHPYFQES
T3 sequence (P24869 2-491 partner limits assumed): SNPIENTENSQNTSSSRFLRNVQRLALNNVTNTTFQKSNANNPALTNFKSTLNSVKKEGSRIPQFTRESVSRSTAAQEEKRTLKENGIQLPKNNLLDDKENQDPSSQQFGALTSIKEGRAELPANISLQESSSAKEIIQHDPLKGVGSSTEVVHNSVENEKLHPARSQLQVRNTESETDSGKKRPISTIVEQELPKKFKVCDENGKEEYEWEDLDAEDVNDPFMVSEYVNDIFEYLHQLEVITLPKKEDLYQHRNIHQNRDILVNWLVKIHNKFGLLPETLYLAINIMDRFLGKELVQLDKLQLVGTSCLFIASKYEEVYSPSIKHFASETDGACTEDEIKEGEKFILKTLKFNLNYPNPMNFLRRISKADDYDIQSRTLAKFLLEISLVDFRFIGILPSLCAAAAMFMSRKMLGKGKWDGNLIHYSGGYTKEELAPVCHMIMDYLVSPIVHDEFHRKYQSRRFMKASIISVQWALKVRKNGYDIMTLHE
T3 sequence (P20486 whole entry partner): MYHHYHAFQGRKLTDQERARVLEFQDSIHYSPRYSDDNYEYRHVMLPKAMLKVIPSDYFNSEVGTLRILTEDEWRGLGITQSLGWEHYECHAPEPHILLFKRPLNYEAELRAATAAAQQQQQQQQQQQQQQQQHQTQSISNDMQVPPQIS
T1 sequence (P00546 2-298 limits assumed): as the sequence (P00546 2-298 limits assumed) above
T1 sequence (P20438 whole entry partner): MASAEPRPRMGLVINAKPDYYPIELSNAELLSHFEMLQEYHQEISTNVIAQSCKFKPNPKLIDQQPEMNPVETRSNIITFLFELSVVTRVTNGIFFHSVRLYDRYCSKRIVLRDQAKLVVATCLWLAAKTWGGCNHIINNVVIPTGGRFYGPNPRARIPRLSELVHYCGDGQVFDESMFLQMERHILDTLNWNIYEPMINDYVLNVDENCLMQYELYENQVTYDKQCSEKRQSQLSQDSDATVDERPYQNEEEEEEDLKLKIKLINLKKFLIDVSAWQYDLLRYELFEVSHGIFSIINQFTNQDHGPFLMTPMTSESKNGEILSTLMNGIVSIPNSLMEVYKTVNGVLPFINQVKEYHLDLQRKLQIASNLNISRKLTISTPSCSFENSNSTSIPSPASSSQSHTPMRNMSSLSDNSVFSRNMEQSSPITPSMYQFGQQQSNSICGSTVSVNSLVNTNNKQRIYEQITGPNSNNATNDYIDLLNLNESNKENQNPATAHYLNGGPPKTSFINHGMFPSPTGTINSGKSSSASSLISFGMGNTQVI
T1 sequence (P20486 whole entry partner): as the sequence (P20486 whole entry partner) above
T2 sequence (P00546 2-298 limits assumed): as the sequence (P00546 2-298 limits assumed) above
T2 sequence (P30283 whole entry partner): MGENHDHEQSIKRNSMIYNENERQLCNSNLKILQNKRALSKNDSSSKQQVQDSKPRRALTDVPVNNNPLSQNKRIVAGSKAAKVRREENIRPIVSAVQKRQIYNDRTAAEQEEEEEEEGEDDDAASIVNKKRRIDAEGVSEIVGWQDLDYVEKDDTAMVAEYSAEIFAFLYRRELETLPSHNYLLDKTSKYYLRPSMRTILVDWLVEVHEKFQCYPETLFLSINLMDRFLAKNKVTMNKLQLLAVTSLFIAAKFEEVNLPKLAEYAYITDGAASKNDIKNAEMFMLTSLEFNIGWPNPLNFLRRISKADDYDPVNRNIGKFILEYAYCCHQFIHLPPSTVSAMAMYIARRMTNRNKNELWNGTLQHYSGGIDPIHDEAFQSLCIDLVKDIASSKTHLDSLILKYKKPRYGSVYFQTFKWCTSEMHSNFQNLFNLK
T2 sequence (P20486 whole entry partner): as the sequence (P20486 whole entry partner) above
T4 sequence (P00546 2-298 limits assumed): as the sequence (P00546 2-298 limits assumed) above
T4 sequence (P24870 whole entry partner): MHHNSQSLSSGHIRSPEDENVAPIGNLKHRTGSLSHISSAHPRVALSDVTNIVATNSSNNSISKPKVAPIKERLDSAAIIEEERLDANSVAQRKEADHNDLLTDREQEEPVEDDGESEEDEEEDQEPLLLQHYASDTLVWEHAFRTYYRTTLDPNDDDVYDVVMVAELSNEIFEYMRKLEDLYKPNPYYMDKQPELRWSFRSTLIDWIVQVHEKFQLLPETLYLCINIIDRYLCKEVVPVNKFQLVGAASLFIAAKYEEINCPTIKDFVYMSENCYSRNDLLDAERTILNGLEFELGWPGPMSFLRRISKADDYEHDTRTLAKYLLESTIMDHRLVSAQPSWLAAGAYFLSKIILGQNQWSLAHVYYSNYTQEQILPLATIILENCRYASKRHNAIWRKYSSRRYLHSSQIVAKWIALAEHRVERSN
T4 sequence (P20486 whole entry partner): as the sequence (P20486 whole entry partner) above

**Q.** For “RTT109: purified yeast protein tested as Cdk1 substrate”, which “kcat/KM, Cln2” value (Cln2-Cdk1) is on record?
**A.** 0.067 relative units

**Q.** And the “kcat/KM, Clb5” value (Clb5-Cdk1)?
**A.** 0.010 relative units

**Q.** And the “kcat/KM, Clb2” value (Clb2-Cdk1)?
**A.** 0.080 relative units

**Q.** And the “kcat/KM, Clb3” value (Clb3-Cdk1)?
**A.** 0.027 relative units

**Q.** How did the “effect of competitor peptide on Cln2-dependent phosphorylation of Sic1ΔC” value (Cln2-Cdk1; [1]) turn out when “RVNAIAFPT [AXL peptide, similar peptide in which the arginine of the RXL motif was replaced with alanine]” was run?
**A.** 3- to 4 fold

**Q.** And the “effect of competitor peptide on Clb5-dependent phosphorylation of Sic1ΔC” value (Clb5-Cdk1)?
**A.** only the RXL peptide reduces the specificity of Clb5

**Q.** How did the “effect of competitor peptide on Cln2-dependent phosphorylation of Sic1ΔC” value (Cln2-Cdk1; [1]) turn out when “RVNRILFPT [synthetic peptide based on the RXL2 motif of Sic1]” was run?
**A.** 3- to 4 fold

**Q.** What about the “effect of competitor peptide on Clb5-dependent phosphorylation of Sic1ΔC” value (Clb5-Cdk1) of the same molecule?
**A.** had an effect on Clb5-dependent phosphorylation

**Q.** With VLLPPSRPTS [LP peptide] as the molecule, how does the “effect of competitor peptide on Cln2 docking / Cln2-dependent phosphorylation of Sic1ΔC” value (Cln2-Cdk1; synthetic competitor peptide 4 mM, result in words) read?
**A.** competitive inhibitor of the docking

B1: MSA1: purified yeast protein tested as Cdk1 substrate (protein, UniProt Q08471 1-629, looked up)
G1-specific transcription …: MDKSMIKKRGRPPITKDYPNPLQSPMAHSSMQVQKQGPHSFAKPLMKVGQSSPSPNKRRLSIDHHHNLAATTRKGRYRGVLLSTPTKKSSTNGSTPISTPSSNDSYNNTVFSETRKTFLQSSPPIMTSSPAFQKKNDYMFPSQEQFKLSLTITESGKAVIAGSLPFSPSSKSSHLMNNNNKKIMQNEKIHKGSKKNAPKFEKRRILSLLKQMKNEKYCDTDTLPEAPPAKPSRSDIIDTELPTIIETSASPIGSARNNNILLSQPPQSPPSSAQLKPPSTPKSSLQFRMGFTPNVALNSVSLSDTISKSTNAVGASNNNNQNGNSISNIADANTLLTLTNSPGVFLSPRNKMLPKSTTASNEQQQEFVFKFSSGDPLLLTDDADGNWPEMLFNVSNTPRRQKCFNTPPSWINFGSPGLFSPPRSSNVMVNGTTVATASDSGNVHRQLQAQLEAQVQVQSQSNSPTQRQQQQRQFQIPPPHINMNSSPPQINIASPPHQSMSRVSSIYFNKEKTTTGVANMLGNTKSENLQPPANLFTAAHGPSTPRNQEFQLPTLIECTPLIQQTMNGSLGTKYIPGTSISNSATPNLHGFPVGTGKAPSSFDDSLKQNPYSNKQDDARTALKRLIDDQ
**Q.** How did the “kcat/KM, Cln2” value (Cln2-Cdk1) turn out when B1 was run?
**A.** 0.157 relative units

**Q.** And the “kcat/KM, Clb5” value (Clb5-Cdk1)?
**A.** 0.024 relative units

**Q.** And the “kcat/KM, Clb2” value (Clb2-Cdk1)?
**A.** 0.034 relative units

**Q.** What about the “kcat/KM, Clb3” value (Clb3-Cdk1) of the same molecule?
**A.** 0.043 relative units

B2: TOS8: purified yeast protein tested as Cdk1 substrate (protein, UniProt P53147 1-276, looked up)
Homeobox protein TOS8: MGTSIVNLNQKIELPPIQVLFESLNRENETKPHFEERRLYQPNPSFVPRTNIAVGSPVNPVPVSSPVFFIGPSPQRSIQNHNAIMTQNIRQYPVIYNNNREVISTGERNYIITVGGPPVTSSQPEYEHISTPNFYQEQRLAQPHPVNESMMIGGYTNPQPISISRGKMLSGNISTNSVRGSNNGYSAKEKKHKAHGKRSNLPKATVSILNKWLHEHVNNPYPTVQEKRELLAKTGLTKLQISNWFINARRRKIFSGQNDANNFRRKFSSSTNLAKF
**Q.** For B2, which “kcat/KM, Cln2” value (Cln2-Cdk1) is on record?
**A.** 2.830 relative units

**Q.** What about the “kcat/KM, Clb5” value (Clb5-Cdk1) of the same molecule?
**A.** 0.069 relative units

**Q.** What about the “kcat/KM, Clb2” value (Clb2-Cdk1) of the same molecule?
**A.** 0.254 relative units

**Q.** What about the “kcat/KM, Clb3” value (Clb3-Cdk1) of the same molecule?
**A.** 0.276 relative units

B3: STB1: purified yeast protein, Cln2-specific Cdk1 target (protein, UniProt P42845 2-420, looked up)
Protein STB1: SQPQMSPEKEQELASKILHRAELAQMTRQLKLGLSNVPSTKRKQDSTTKKRSGEDAEDVDEDHKTLLEAISPAKKPLHDDTNKMTVISPVKFVEKPNTPPSSRQRKAEDRSQQIKPRKEDTPSTPRASATPIILPHASSHYQRPHDKNFMTPKRNNNNSSNHSNNNNNIKKKAAGSKDAPQDSDNTAGADLLMYLATSPYNKSSHHGTPMAVRMPTTPRSYHYASQLSLNGNTASTSNDAVRFSHIKPSASSPQSTFKSNLLPNFPDESLMDSPSLYLSNNNGSVQATLSPQQRRKPTTNTLHPPSNVPTTPSRELNGTNFNLLRTPNFNMGDYLHNLFSPSPRVPAQQGASNTSASIPSVPAMVPGSSSNTSAIATAAISSHTTNNFLDMNANGIPLIVGPGTDRIGEGESIDDKLTD
**Q.** How did the “kcat/KM, Cln2” value (Cln2-Cdk1) turn out when B3 was run?
**A.** 2.011 relative units

**Q.** What about the “kcat/KM, Clb5” value (Clb5-Cdk1) of the same molecule?
**A.** 0.191 relative units

**Q.** What about the “kcat/KM, Clb2” value (Clb2-Cdk1) of the same molecule?
**A.** 0.878 relative units

**Q.** And the “kcat/KM, Clb3” value (Clb3-Cdk1)?
**A.** 0.622 relative units

B4: YOX1: purified yeast protein tested as Cdk1 substrate (protein, UniProt P34161 1-385, looked up)
Homeobox protein YOX1: MSQETKMLPSLSSLLSGTEISSSPVSPSFTNPRTSFHLDDRGTIKLPPLNTSINRPRSVESALRHTVTSLHENSSAYGDDMLKHTQSDSALSSQLNSSQETVDESHENLLLTPLNSKKRDYSVSSKKNDILTPLSAAKSIIIPSASKEKRRAFAFITHSQETFPKKEPKIDNAPLARRKRRRTSSQELSILQAEFEKCPAPSKEKRIELAESCHMTEKAVQIWFQNKRQAVKRQRIATSKSTTIIQTVSPPSPPLDVHATPLASRVKADILRDGSSCSRSSSSSPLENTPPRPHHSLNRRSSTPSIKRSQALTFHLNPQKKTLTPVKTSPNSRVNKLINSIDHSPSKAKRPVSNPSGSPKRKRKFGFKIVDQQPLKDLDPNAFRG
**Q.** With B4 as the molecule, how does the “kcat/KM, Cln2” value (Cln2-Cdk1) read?
**A.** 0.584 relative units

**Q.** And the “kcat/KM, Clb5” value (Clb5-Cdk1)?
**A.** 0.244 relative units

**Q.** What about the “kcat/KM, Clb2” value (Clb2-Cdk1) of the same molecule?
**A.** 4.536 relative units

**Q.** And the “kcat/KM, Clb3” value (Clb3-Cdk1)?
**A.** 2.094 relative units

B5: ACE2: purified yeast protein tested as Cdk1 substrate (protein, UniProt P21192 1-770, looked up)
Metallothionein expression …: MDNVVDPWYINPSGFAKDTQDEEYVQHHDNVNPTIPPPDNYILNNENDDGLDNLLGMDYYNIDDLLTQELRDLDIPLVPSPKTGDGSSDKKNIDRTWNLGDENNKVSHYSKKSMSSHKRGLSGTAIFGFLGHNKTLSISSLQQSILNMSKDPQPMELINELGNHNTVKNNNDDFDHIRENDGENSYLSQVLLKQQEELRIALEKQKEVNEKLEKQLRDNQIQQEKLRKVLEEQEEVAQKLVSGATNSNSKPGSPVILKTPAMQNGRMKDNAIIVTTNSANGGYQFPPPTLISPRMSNTSINGSPSRKYHRQRYPNKSPESNGLNLFSSNSGYLRDSELLSFSPQNYNLNLDGLTYNDHNNTSDKNNNDKKNSTGDNIFRLFEKTSPGGLSISPRINGNSLRSPFLVGTDKSRDDRYAAGTFTPRTQLSPIHKKRESVVSTVSTISQLQDDTEPIHMRNTQNPTLRNANALASSSVLPPIPGSSNNTPIKNSLPQKHVFQHTPVKAPPKNGSNLAPLLNAPDLTDHQLEIKTPIRNNSHCEVESYPQVPPVTHDIHKSPTLHSTSPLPDEIIPRTTPMKITKKPTTLPPGTIDQYVKELPDKLFECLYPNCNKVFKRRYNIRSHIQTHLQDRPYSCDFPGCTKAFVRNHDLIRHKISHNAKKYICPCGKRFNREDALMVHRSRMICTGGKKLEHSINKKLTSPKKSLLDSPHDTSPVKETIARDKDGSVLMKMEEQLRDDMRKHGLLDPPPSTAAHEQNSNRTLSNETDAL
**Q.** Which results are given for B5?
**A.** kcat/KM, Cln2 (Cln2-Cdk1): 0.025 relative units; kcat/KM, Clb5 (Clb5-Cdk1): 0.004 relative units; kcat/KM, Clb2 (Clb2-Cdk1): 0.069 relative units; kcat/KM, Clb3 (Clb3-Cdk1): 0.029 relative units
